Source: publication PMC3737555, “Structural insights into the targeting of mRNA GU-rich elements by the three RRMs of CELF1”

Legend:
CELF1 RRM23 (Xenopus) = test: ITC; conditions: ITC: 25 mM potassium phosphate, 100 mM NaCl, pH 7.0, 25 C, 12.5 uM protein, 125 uM RNA in syringe; NMR: same buffer, 298 K, ~200-250 uM protein
CELF1 RRM123 [1] = target: T1, CELF1 RRM123 (Xenopus, UniProt O57406 1-214+385-489, internal_change); test: NMR PRE; strongest PRE in RRM3; ITC: 25 mM potassium phosphate, 100 mM NaCl, pH 7.0, 25 C, 12.5 uM protein, 125 uM RNA in syringe; NMR: same buffer, 298 K, ~200-250 uM protein; conditions: protein: recombinant; tags: N-terminal His; label: MTSL on 3' 4-thiouridine; single strand
T1 sequence (O57406 other isoform, or with tags, fused parts or gaps): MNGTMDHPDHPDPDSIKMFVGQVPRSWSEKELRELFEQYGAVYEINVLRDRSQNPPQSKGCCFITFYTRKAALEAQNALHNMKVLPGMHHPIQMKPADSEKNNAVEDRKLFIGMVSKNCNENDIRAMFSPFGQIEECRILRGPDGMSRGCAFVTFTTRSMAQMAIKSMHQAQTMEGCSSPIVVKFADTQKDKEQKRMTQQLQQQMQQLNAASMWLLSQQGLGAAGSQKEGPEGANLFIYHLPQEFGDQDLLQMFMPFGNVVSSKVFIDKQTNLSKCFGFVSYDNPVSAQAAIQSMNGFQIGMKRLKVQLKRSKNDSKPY

CELF1 RRM123 [2] = target: T1, CELF1 RRM123; test: ITC; n=0.79; ITC: 25 mM potassium phosphate, 100 mM NaCl, pH 7.0, 25 C, 12.5 uM protein, 125 uM RNA in syringe; NMR: same buffer, 298 K, ~200-250 uM protein; conditions: protein: recombinant; tags: N-terminal His; single strand
CELF1 RRM1 = CELF1 RRM1 (Xenopus, UniProt O57406 16-99); test: NMR PRE; ITC: 25 mM potassium phosphate, 100 mM NaCl, pH 7.0, 25 C, 12.5 uM protein, 125 uM RNA in syringe; NMR: same buffer, 298 K, ~200-250 uM protein; conditions: protein: recombinant; tags: His; label: MTSL on 5' 4-thiouridine; single strand
Chain of CELF1 RRM1 (O57406 16-99): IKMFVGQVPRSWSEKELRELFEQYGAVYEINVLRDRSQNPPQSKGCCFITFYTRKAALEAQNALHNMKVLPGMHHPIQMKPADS

CELF1 RRM123 [3] = target: T1, CELF1 RRM123; test: ITC; n=0.85; ITC: 25 mM potassium phosphate, 100 mM NaCl, pH 7.0, 25 C, 12.5 uM protein, 125 uM RNA in syringe; NMR: same buffer, 298 K, ~200-250 uM protein; conditions: protein: recombinant; tags: N-terminal His; single strand
[4] = target: CELF1 full-length wild type (Xenopus, UniProt O57406 1-489); test: NMR; extensive line broadening; ITC: 25 mM potassium phosphate, 100 mM NaCl, pH 7.0, 25 C, 12.5 uM protein, 125 uM RNA in syringe; NMR: same buffer, 298 K, ~200-250 uM protein; conditions: protein: recombinant, tags: N-terminal His
Chain of CELF1 full-length wild type (O57406 whole entry): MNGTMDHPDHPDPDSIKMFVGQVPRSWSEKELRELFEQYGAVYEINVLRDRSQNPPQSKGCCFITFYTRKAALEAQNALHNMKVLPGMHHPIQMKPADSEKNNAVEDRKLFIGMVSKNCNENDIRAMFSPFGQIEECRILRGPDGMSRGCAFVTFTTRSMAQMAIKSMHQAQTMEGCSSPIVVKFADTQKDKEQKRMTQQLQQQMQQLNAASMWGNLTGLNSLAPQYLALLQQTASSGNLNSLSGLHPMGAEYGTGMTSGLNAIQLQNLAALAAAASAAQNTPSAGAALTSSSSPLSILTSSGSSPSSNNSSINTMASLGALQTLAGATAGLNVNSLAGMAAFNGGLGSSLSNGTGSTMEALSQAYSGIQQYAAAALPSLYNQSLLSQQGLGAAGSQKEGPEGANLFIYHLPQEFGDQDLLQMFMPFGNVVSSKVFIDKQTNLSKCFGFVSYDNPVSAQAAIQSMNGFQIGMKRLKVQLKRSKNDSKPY

CELF1 RRM123 [5] = target: T1, CELF1 RRM123; test: ITC; n=0.67; ITC: 25 mM potassium phosphate, 100 mM NaCl, pH 7.0, 25 C, 12.5 uM protein, 125 uM RNA in syringe; NMR: same buffer, 298 K, ~200-250 uM protein; conditions: protein: recombinant; tags: N-terminal His; single strand
CELF1 RRM123 [6] = target: T1, CELF1 RRM123; test: ITC; n=1.19; text gives 1.50 +/- 0.28; ITC: 25 mM potassium phosphate, 100 mM NaCl, pH 7.0, 25 C, 12.5 uM protein, 125 uM RNA in syringe; NMR: same buffer, 298 K, ~200-250 uM protein; conditions: protein: recombinant; tags: N-terminal His; single strand
CELF1 RRM123 [7] = target: T1, CELF1 RRM123; test: ITC; n=1.64; ITC: 25 mM potassium phosphate, 100 mM NaCl, pH 7.0, 25 C, 12.5 uM protein, 125 uM RNA in syringe; NMR: same buffer, 298 K, ~200-250 uM protein; conditions: protein: recombinant; tags: N-terminal His; single strand
CELF1 RRM123 [8] = target: T1, CELF1 RRM123; test: NMR PRE; strongest PRE in RRM2; ITC: 25 mM potassium phosphate, 100 mM NaCl, pH 7.0, 25 C, 12.5 uM protein, 125 uM RNA in syringe; NMR: same buffer, 298 K, ~200-250 uM protein; conditions: protein: recombinant; tags: N-terminal His; label: MTSL on 5' 4-thiouridine; single strand
CELF1 RRM123 [9] = target: T1, CELF1 RRM123; test: ITC; n=0.83; ITC: 25 mM potassium phosphate, 100 mM NaCl, pH 7.0, 25 C, 12.5 uM protein, 125 uM RNA in syringe; NMR: same buffer, 298 K, ~200-250 uM protein; conditions: protein: recombinant; tags: N-terminal His; hairpin, 4 bp stem, single-stranded 5' and 3' tails
CELF1 RRM123 [10] = target: T1, CELF1 RRM123; test: ITC; n=1.45; ITC: 25 mM potassium phosphate, 100 mM NaCl, pH 7.0, 25 C, 12.5 uM protein, 125 uM RNA in syringe; NMR: same buffer, 298 K, ~200-250 uM protein; conditions: protein: recombinant; tags: N-terminal His; single strand

Molecule: RNA with UGU(U) site used with RRM23
- Kd (CELF1 RRM23 (Xenopus)): 0.52 µM

Molecule: UGUUUUGUUUUUUGUU (ssRNA, 3'-terminal 4-thiouridine (taken as an additional nucleotide; not explicit)) [3'-U* EDEN-2U/4U]
- binding result (CELF1 RRM123 [1]): binds

Molecule: UGUAUGUGUUGUUUUAUGU (ssRNA) [EDEN19]
- Kd (CELF1 RRM123 [2]): 0.33 ± 0.07 µM

Molecule: UUGU (ssRNA, 5'-terminal 4-thiouridine) [5'-U*UGU]
- binding result (CELF1 RRM1): binds

Molecule: UGUUUUGUUUUUUGU (ssRNA) [EDEN-2U/4U]
- Kd (CELF1 RRM123 [3]): 0.11 ± 0.02 µM
- binding result ([4]; single strand): binds

Molecule: UGUUUUUUGUUUUGU (ssRNA) [EDEN-4U/2U]
- Kd (CELF1 RRM123 [5]): 0.98 ± 0.12 µM

Molecule: UGUUUUGUUUGU (ssRNA) [EDEN-2U/1U]
- Kd (CELF1 RRM123 [6]): 1.49 ± 0.23 µM

Molecule: UGUUUUUUGU (ssRNA) [EDEN-4U]
- Kd (CELF1 RRM123 [7]): 2.08 ± 0.4 µM

Molecule: UUGUUUUGUUUUUUGU (ssRNA, additional 5'-terminal 4-thiouridine) [5'-U* EDEN-2U/4U]
- binding result (CELF1 RRM123 [8]): binds

Molecule: UGUUUUGUUCCCGAGGACGGGUUGU (structured_RNA) [EDEN-2U/HL]
- Kd (CELF1 RRM123 [9]): 0.55 ± 0.08 µM
- binding result ([4]; hairpin, 4 bp stem, single-stranded 5' and 3' tails): binds

Molecule: UGUUUGUUUGU (ssRNA) [EDEN11 (GRE)]
- Kd (CELF1 RRM123 [10]): 2.2 ± 0.3 µM
